Legend:
[1] = test system: GST-p12 phosphorylation in 293T cells; assay: nano LC-MS/MS phosphopeptide identification of GST-p12; assay type: cell-based
Excerpt: We next used nanoscale liquid chromatography coupled to tandem mass spectrometry (nano LC–MS/MS) to identify phosphopeptides of GST-p12_WT precipitated from 293T cells. The phosphorylation sites in the high confidence tryptic-peptides (<1% false discovery rate, FDR) were assigned using the probability-based phosphoRS algorithm (Table 1). A peptide was counted as being phosphorylated at a specific residue if its phosphoRS site probability was >50%. For each tryptic peptide, the phosphorylation level at a particular site was estimated by dividing the phosphorylated peptide count by the total peptide count. This analysis, carried out with two biological replicates, confirmed S61 to be the main site of phosphorylation on GST-p12_WT, with ~45% of S61-containing peptides phosphorylated at this residue (Table 1). We also identified T52, S65, S78, T80 and S81 as additional sites of low-level phosphorylation on p12 (Table 1). […] The absence of a detectable association between GST-p12 and mitotic chromatin is therefore unlikely to result from a lack of phosphorylation of recombinant p12.
To identify phosphopeptides of GST-p12, bead eluates were separated by SDS-PAGE and stained using SimplyBlue safe stain (Thermo Fisher Scientific). The band corresponding to GST-p12 was then excised and submitted for nano-LC-MS/MS analysis as described in [54], but without phosphopeptides enrichment. The probability-based phosphoRS algorithm was used for assigning phosphorylation sites in the detected peptides.

[2] = test system: GST-p12 phosphorylation in 293T cells; assay: GST-p12 phosphorylation by ProQ diamond / Sypro ruby staining; assay type: cell-based; conditions: PQ/SR ratio, 3 technical replicates; "at least"
Method: Firstly, GST-p12 pulled-down from mitotic cell lysates was analysed by SDS-PAGE followed by sequential staining with two fluorescent dyes, ProQ diamond (PQ) and Sypro Ruby (SR). PQ is a small molecule fluorophore that binds with high-specificity to phosphorylated proteins. SR binds all proteins and is useful as a total protein indicator. The ratio of PQ and SR dye signals provides a measure of the phosphorylation level with respect to the total amount protein. Viral p12 is known to be mainly phosphorylated at serine 61 within the CTD [19, 25]. We therefore compared the relative phosphorylation levels of GST-p12_WT with a S61A mutant. Compared to p12_S61A, p12_WT was at least 3-fold more phosphorylated (Fig 3E, lanes 2 and 3).
GST-p12 proteins were expressed in 293T cells from pCAGGS/GST-derived plasmids by transient transfection using Turbofect (Thermo Fisher Scientific). Approximately 24 h after transfection, cells were changed into fresh media containing either 400 ng/ml nocodazole (Sigma) or 2 μg/ml aphidicolin (Sigma) and incubated overnight at 37°C. The synchronisation of the cell cultures after drug treatment was assessed by propidium iodide staining and cell cycle phase analysis by flow cytometry. […] ProQ diamond and Sypro ruby staining (Thermo Fisher Scientific) of gels was visualised and quantified on a ChemiDoc imaging system (Bio-Rad).

[3] = test system: double- and single-stranded calf thymus DNA; assay: Pull-down with DNA-coated cellulose beads; assay type: binding; conditions: 293T lysates
Method: GST-p12 and IN-HA were expressed in 293T cells from pCAGGS/GST and pCMV4/HA-derived plasmids respectively, by transient transfection using Turbofect (Thermo Fisher Scientific). Approximately 24 h after transfection, cells were changed into fresh media and incubated overnight at 37°C. Cells were then washed and lysed in 20 mM Tris-HCl pH 8.0, 300 mM NaCl, 1 mM EDTA, 10% Glycerol, 1% Triton X-100, protease inhibitors. Lysis was facilitated by passing the lysates through a 19-gauge needle x7 and sonication, x7 pulses, 30 s ON and 30 s OFF, in an ice bath (Decon FS100). After sonication, the lysates were supplemented with 4 mM MgCl2 and 1 mM DTT, and incubated for a further 1 h at 4°C. The lysates were then clarified by centrifugation and diluted 1:3 in 20 mM Tris-HCl pH 8.0, 10% glycerol, 4 mM MgCl2 and 1 mM DTT. The lysates were then normalised based on total protein concentration using the Bradford protein assay (Bio-Rad). 0.7 ml aliquots of lysates at 0.7 mg/ml were incubated with calf thymus DNA-coated cellulose beads (100 μl/reaction of a 50% slurry) (Sigma) for 1 h at 4°C with end-over-end rotation. The beads were then washed three times in 20 mM Tris pH 8.0, 100 mM NaCl, 0.33 mM EDTA, 10% Glycerol, 0.33% Triton X-100, 4 mM MgCl2 and 1 mM DTT and re-suspended in 50 μl of x2 protein loading dye for SDS-PAGE and immunoblotting.

B1: GST-p12_WT: N-terminally GST-tagged Mo-MLV p12 (protein)
chain: PALTPSLGAKPKPQVLSDSGGPLIDLLTEDPPPYRDPRPPPSDRDGNGGEATPAGEAPDPSPMASRLRGRREPPVADSTTSQAF
modifications: left off: GST, N-terminal, kept
notes: N-terminally GST-tagged Mo-MLV p12
[1]; S61, peptide aa 36–66, 1 missed cleavage, replicate R1
  Fraction of phosphorylated peptides: 0.47
[1]; S61, peptide aa 36–66, 1 missed cleavage, replicate R2
  Fraction of phosphorylated peptides: 0.52
[1]; S61, peptide aa 45–66, 0 missed cleavages, replicate R1
  Fraction of phosphorylated peptides: 0.36
[1]; S61, peptide aa 45–66, 0 missed cleavages, replicate R2
  Fraction of phosphorylated peptides: 0.49
[1]; S65, peptide aa 45–66, 0 missed cleavages, replicate R1
  Fraction of phosphorylated peptides: 0.01
[1]; S65, peptide aa 45–66, 0 missed cleavages, replicate R2
  Fraction of phosphorylated peptides: 0.07
[1]; S78, peptide aa 72–84+ linker, 0 missed cleavages, replicate R1
  Fraction of phosphorylated peptides: 0.03
[1]; S78, peptide aa 72–84+ linker, 0 missed cleavages, replicate R2
  Fraction of phosphorylated peptides: 0.03
[1]; S81, peptide aa 71–84+ linker, 1 missed cleavage, replicate R1
  Fraction of phosphorylated peptides: 0.10
[1]; S81, peptide aa 72–84+ linker, 0 missed cleavages, replicate R1
  Fraction of phosphorylated peptides: 0.03
[1]; S81, peptide aa 72–84+ linker, 0 missed cleavages, replicate R2
  Fraction of phosphorylated peptides: 0.01
[1]; T52, peptide aa 45–66, 0 missed cleavages, replicate R1
  Fraction of phosphorylated peptides: 0.13
[1]; T52, peptide aa 45–66, 0 missed cleavages, replicate R2
  Fraction of phosphorylated peptides: 0.04
[1]; T80, peptide aa 71–84+ linker, 1 missed cleavage, replicate R1
  Fraction of phosphorylated peptides: 0.04
[1]; T80, peptide aa 72–84+ linker, 0 missed cleavages, replicate R1
  Fraction of phosphorylated peptides: 0.01
[2]
  phosphorylation at mitosis in comparison to interphase: 3–4 fold
[3]
  binding to DNA-coated beads: no binding to DNA was observed
